Test results taken from publication PMC2175355.

Target: RNA polymerase holoenzyme (sigma70);RapA (native) (Escherichia coli;Escherichia coli) (UniProt P0A7Z4+P0A8V2+P0A8T7+P0A800+P00579+P60240)
Test: EMSA

Work on “55-nt RNA with two stem-loops and rA18 tail” yielded a binding signal (fold affinity vs holoenzyme without RapA) of over 20.
